Experimental data from US20080020978A1 (Amgen, published 2008).
Changes are numbered by the printed parent chain. Numbered stars: 1 amine (or outer) side, 2 acyl side, 3 side chain; on linkers, the order of the positions; unused ones are H or OH. Square brackets hold non-standard residues; d marks the D form. Ends that are not written are not given here. * marks the point of attachment. 20 kDa MeO‑PEG = methoxy-polyethylene glycol of 20 kDa conjugated to the residue side chain; 13C1,2Ac = N-terminal acetyl group labelled with 13C at carbons 1 and 2, [13CH3][13C](=O)*; 15N‑F = phenylalanine labelled with 15N, O=C([C@H](Cc1ccccc1)[15NH][*:1])[*:2]; Cit = NC(=O)NCCC[C@H](N)C(=O)O

B1: SEQ ID NO 785 (peptide)
peptide: WVTHXLAGLLSXSGGVVRKNFVPTDVGPFAF
modifications: Ac-WVTH[hArg]LAGLLS[hArg]SGGVVRK^(20 kDa MeO-PEG)NFVPTDVGPFAF-amide
B2: SEQ ID NO 786 (peptide)
peptide: B1 peptide with X5R
modifications: Ac-WVTHRLAGLLS[hArg]SGGVVRKNFVPTDVGPFAF-amide
B3: SEQ ID NO 787 (peptide)
peptide: B1 peptide with X5R
modifications: Ac-WVTHRLAGLLS[hArg]SGGVVRK^(20 kDa MeO-PEG)NFVPTDVGPFAF-amide
B4: SEQ ID NO 788 (peptide)
peptide: B1 peptide with X12R
modifications: Ac-WVTH[hArg]LAGLLSRSGGVVRKNFVPTDVGPFAF-amide
B5: SEQ ID NO 789 (peptide)
peptide: B1 peptide with X12R
modifications: Ac-WVTH[hArg]LAGLLSRSGGVVRK^(20 kDa MeO-PEG)NFVPTDVGPFAF-amide
B6: SEQ ID NO 790 (peptide)
peptide: B1 peptide
modifications: Ac-WVTH[Cit]LAGLLS[Cit]SGG VVRKNFVPTDVGPFAF-amide
B7: SEQ ID NO 796 (peptide)
peptide: B1 peptide with X5R
modifications: Ac-WVTHRLAGLLS[Cit]SGG VVRKNFVPTDVGPFAF-amide
B8: SEQ ID NO 797 (peptide)
peptide: B1 peptide with X5R
modifications: Ac-WVTHRLAGLLS[Cit]SGG VVRK^(20 kDa MeO-PEG)NFVPTDVGPFAF-amide
B9: SEQ ID NO 798 (peptide)
peptide: B1 peptide with X12R
modifications: Ac-WVTH[Cit]LAGLLSRSGGV VRKNFVPTDVGPFAF-amide
B10: SEQ ID NO 799 (peptide)
peptide: B1 peptide with X12R
modifications: Ac-WVTH[Cit]LAGLLSRSGGV VRK^(20 kDa MeO-PEG)NFVPTDVGPFAF-amide
B11: SEQ ID NO 801 (peptide)
peptide: WVTHRLAGLLSRSGGVVRNCFVPTDVGPFAF
modifications: Ac-WVTHRLAGLLSRSGGVVRNC^(20 kDa MeO-PEG)FVPTDVGPFAF-amide
B12: SEQ ID NO 803 (peptide)
peptide: {13C1,2Ac}-WVTHRLAGLLSRSGGVVRK(20 kDa MeO‑PEG)NFVPTDVGPFA[15N‑F]-NH2
B13: SEQ ID NO 814 (peptide)
peptide: Ac-WVTHRLAGLLSQSGGVVRKNFVPTDVGPFAF-NH2
B14: SEQ ID NO 815 (peptide)
peptide: Ac-WVTHRLAGLLSQSGGVVRK(20 kDa MeO‑PEG)NFVPTDVGPFAF-NH2
B15: SEQ ID NO 816 (peptide)
peptide: Ac-WVTHQLAGLLSQSGGVVRKNFVPTDVGPFAF-NH2
B16: SEQ ID NO 817 (peptide)
peptide: Ac-WVTHQLAGLLSQSGGVVRK(20 kDa MeO‑PEG)NFVPTDVGPFAF-NH2
B17: SEQ ID NO 818 (peptide)
peptide: Ac-WVTHQLAGLLSQSGGVVRK(20 kDa MeO‑PEG)NFVPTDVGPFAF-NH2
B18: SEQ ID NO 820 (peptide)
peptide: Ac-WVTHRLAGLLSRSGGVCRNNFVPTDVGPFAF-NH2
B19: SEQ ID NO 821 (peptide)
peptide: Ac-WVTHRLAGLLSRSGGVC(20 kDa MeO‑PEG)RNNFVPTDVGPFAF-NH2
B20: SEQ ID NO 823 (peptide)
peptide: Ac-WVTHRLAGLLSRSGGVKRNNFVPTDVGPFAF-NH2
B21: SEQ ID NO 824 (peptide)
peptide: Ac-WVTHRLAGLLSRSGGVK(20 kDa MeO‑PEG)RNNFVPTDVGPFAF-NH2
B22: SEQ ID NO 850 (peptide)
peptide: Ac-WVTHRLAGLAS[Cit]SGGVVRKNFVPTDVGPFAF-NH2
SMILES: CC(=O)N[C@@H](Cc1c[nH]c2ccccc12)C(=O)N[C@H](C(=O)N[C@H](C(=O)N[C@@H](Cc1c[nH]cn1)C(=O)N[C@@H](CCCNC(=N)N)C(=O)N[C@@H](CC(C)C)C(=O)N[C@@H](C)C(=O)NCC(=O)N[C@@H](CC(C)C)C(=O)N[C@@H](C)C(=O)N[C@@H](CO)C(=O)N[C@@H](CCCNC(N)=O)C(=O)N[C@@H](CO)C(=O)NCC(=O)NCC(=O)N[C@H](C(=O)N[C@H](C(=O)N[C@@H](CCCNC(=N)N)C(=O)N[C@@H](CCCCN)C(=O)N[C@@H](CC(N)=O)C(=O)N[C@@H](Cc1ccccc1)C(=O)N[C@H](C(=O)N1CCC[C@H]1C(=O)N[C@H](C(=O)N[C@@H](CC(=O)O)C(=O)N[C@H](C(=O)NCC(=O)N1CCC[C@H]1C(=O)N[C@@H](Cc1ccccc1)C(=O)N[C@@H](C)C(=O)N[C@@H](Cc1ccccc1)C(N)=O)C(C)C)[C@@H](C)O)C(C)C)C(C)C)C(C)C)[C@@H](C)O)C(C)C
B23: SEQ ID NO 851 (peptide)
peptide: Ac-WVTHRLAGLAS[Cit]SGGVVRK(MeO‑PEG 20 kDa)NFVPTDVGPFAF-NH2
B24: SEQ ID NO 852 (peptide)
peptide: Ac-WVTH[Cit]LAGLAS[Cit]SGGVVRKNFVPTDVGPFAF-NH2
B25: SEQ ID NO 853 (peptide)
peptide: Ac-WVTH[Cit]LAGLAS[Cit]SGGVVRK(20 kDa MeO‑PEG)NFVPTDVGPFAF-NH2
B26: SEQ ID NO 854 (peptide)
peptide: Ac-WVTHRLAGLLSRPGGVVRKNFVPTDVGPFAF-NH2
B27: SEQ ID NO 855 (peptide)
peptide: Ac-WVTHRLAGLLSRPGGVVRK(20 kDa MeO‑PEG)NFVPTDVGPFAF-NH2
B28: SEQ ID NO 172 (peptide)
peptide: B1 peptide with R18X, P28X
modifications: Ac-WVTH[Cit]LAGLLS[Cit]SGGVV[hArg]K(20 KPEGald)NFVPTDVG[Oic]FAF-NH2
B29: SEQ ID NO 674 (peptide)
peptide: B1 peptide with R18X, F29X
modifications: Ac-WVTH[Cit]LAGLLS[Cit]SGGVV[hArg]KNFVPTDVGP[1-Nal]AF-NH2
B30: SEQ ID NO 229 (peptide)
peptide: Ac-VTHRLAGLLSRSGGVVRK(PEG 5 kDa)NFVPTDVGPFAF-NH2
B31: SEQ ID NO 230 (peptide)
peptide: Ac-VTHRLAGLLSRSGGVVRK(20 kDa PEG)NFVPTDVGPFAF-NH2
B32: SEQ ID NO 231 (peptide)
peptide: Ac-WVTHRLAGLLSRSGGVVKCNFVPTDVGPFAF-NH2
modifications: not fully specified (residue 19); printed as Ac-WVTHRLAGLLSRSGGVVKC^(20 kDa PEG)NFVPTDVGPFAF-amide
B33: SEQ ID NO 680 (peptide)
peptide: Ac-WVTHRLAGLLSRSGGVVRCNFVPTDVGPFAF-NH2
B34: SEQ ID NO 681 (peptide)
peptide: Ac-WVTHRLAGLLSRSGGVVRCNFVPTDVGPFAF-NH2
modifications: not fully specified (residue 19); printed as Ac-WVTHRLAGLLSRSGGVVRC^(20 kDa PEG)NFVPTDVGPFAF-amide
B35: SEQ ID NO 682 (peptide)
peptide: Ac-WVTHRLAGLLSRSGGVVCNNFVPTDVGPFAF-NH2
B36: SEQ ID NO 683 (peptide)
peptide: Ac-WVTHRLAGLLSRSGGVVCNNFVPTDVGPFAF-NH2
modifications: not fully specified (residue 18); printed as Ac-WVTHRLAGLLSRSGGVVC^(20 kDa PEG)NNFVPTDVGPFAF-amide
B37: SEQ ID NO 684 (peptide)
peptide: Ac-WVTHRLAGLLSRSGGVVKNNFVPTDVGPFAF-NH2
B38: SEQ ID NO 695 (peptide)
peptide: WVTHRLAGLLSRSGGVVKCNFVPTNVGSKAF
modifications: WVTHRLAGLLSRSGGVVKC^(5 kDa MeO-PEG)NFVPTNVGSKAF-amide
B39: SEQ ID NO 232 (peptide)
peptide: Ac-WVTHRLAGLLSRSGGVVKC(PEG 30 kDa)NFVPTDVGPFAF-NH2
B40: SEQ ID NO 689 (peptide)
peptide: WVTHRLAGLLSRSGGVVKCNFVPTDVGPFAF-NH2
B41: SEQ ID NO 690 (peptide)
peptide: C(MeO‑PEG 5 kDa)GGGGGGGVTHRLAGLLSRSGGVVKNNFVPTNVGSKAF-NH2
B42: SEQ ID NO 692 (peptide)
peptide: CGGGGGGGVTHRLAGLLSRSGGVVKNNFVPTDVGPFAF-NH2
modifications: not fully specified (residue 1)
B43: SEQ ID NO 693 (peptide)
peptide: VTHRLAGLLSRSGGVVKCNFVPTNVGSKAF
modifications: VTHRLAGLLSRSGGVVKC^(5 kDa MeO-PEG)NFVPTNVGSKAF-amide
B44: SEQ ID NO 691 (peptide)
peptide: VTHRLAGLLSRSGGVVC(MeO‑PEG 5 kDa)NNFVPTNVGSKAF-NH2
B45: SEQ ID NO 694 (peptide)
peptide: B43 peptide
modifications: VTHRLAGLLSRSGGVVKC^(5 kDa MeO-PEG)NFVPTNVGSKAF-amide
B46: SEQ ID NO 696 (peptide)
peptide: WVTHRLAGLLSRSGGVVKC(MeO‑PEG 5 kDa)NFVPTDVGPFAF-NH2

Legend:
[1] = target: T1, CGRP1 receptor (CRLR/RAMP1 complex) of human neuroblastoma SK-N-MC cells (human, UniProt Q16602 23-461; O60894 27-148); assay: cell-based or functional assay
T1 sequence (Q16602 23-461, chain 1 of 2): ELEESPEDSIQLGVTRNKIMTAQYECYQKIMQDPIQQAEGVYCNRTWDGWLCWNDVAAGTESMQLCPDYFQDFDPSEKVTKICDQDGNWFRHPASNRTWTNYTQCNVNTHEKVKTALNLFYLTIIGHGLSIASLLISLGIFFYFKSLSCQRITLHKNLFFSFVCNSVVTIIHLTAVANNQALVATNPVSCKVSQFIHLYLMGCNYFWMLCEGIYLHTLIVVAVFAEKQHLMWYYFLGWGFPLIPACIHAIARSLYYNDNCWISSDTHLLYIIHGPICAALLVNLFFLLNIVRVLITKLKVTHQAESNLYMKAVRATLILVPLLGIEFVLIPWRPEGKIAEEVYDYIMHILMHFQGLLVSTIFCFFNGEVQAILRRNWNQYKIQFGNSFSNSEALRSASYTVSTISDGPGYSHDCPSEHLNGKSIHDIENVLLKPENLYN
T1 sequence (O60894 27-148, chain 2 of 2): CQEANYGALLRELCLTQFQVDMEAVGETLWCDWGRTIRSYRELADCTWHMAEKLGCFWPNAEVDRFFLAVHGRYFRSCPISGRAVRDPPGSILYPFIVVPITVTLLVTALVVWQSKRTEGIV

[2] = target: T1, CGRP1 receptor (CRLR/RAMP1 complex) of …; assay: 125I-hαCGRP competition, SK-N-MC membranes
Protocol: CGRP₁ binding experiments. […] The plates were incubated at room temperature for 2 hour with shaking at 60 rpm, then the contents of each well were filtered over 0.5% polyethyleneimine (PEI)-treated (at least one hour) GF/C 96-well filter plates. The GF/C filter plates were washed 6 times with ice-cold 50 mM Tris, pH 7.5 and dried in an oven at 55 C for 1 hour. The bottoms of the GF/C plates were then sealed, and 40 μl Microscint™ 20 was added to each well, then the tops of the GF/C plates were sealed with TopSeal™-A, a press-on adhesive sealing film, and the GF/C plates were counted with TopCount NXT (Packard). The data were analyzed by using ActivityBase (IDBS) or Prizm (GraphPad) software.

Binder	IC50 [1] [nM]	Ki [2] [nM]
B1	0.37	–
B2	0.57	–
B3	0.33	–
B4	0.44	–
B5	0.36	–
B6	1.7	–
B7	0.58	–
B8	0.96	–
B9	0.57	–
B10	2.08	–
B11	1.64	–
B12	3.28	–
B13	0.47	–
B14	0.46	–
B15	0.53	–
B16	5.24	–
B17	7.18	–
B18	0.36	–
B19	0.16	–
B20	0.51	–
B21	0.98	–
B22	1.85	–
B23	228	–

Binder	IC50 [1] [nM]	Ki [2] [nM]
B24	23.4	–
B25	> 1000	–
B26	1.27	–
B27	18	–
B28	–	1.27
B29	–	0.64
B30	–	0.06
B31	–	0.17
B32	–	0.27
B33	–	0.58
B34	–	0.6
B35	–	0.34
B36	–	1.58
B37	–	0.08
B38	–	5.44
B39	–	0.27
B40	–	0.95
B41	–	3070
B42	–	20.8
B43	–	17.5
B44	–	157
B45	–	31.8
B46	–	0.21
